Measurements taken from article PMC10015821 (Matrix biology : journal of the International Society for …, 2022).
One block for each molecule: values may come before it.

Key:
Test in all cases: SPR
[1] = molecular target: mouse HMCN1 fragment G2F-EGF1–5 (Strep-tagged) (mouse) (UniProt D3YXG0)
[2] = molecular target: mouse HMCN1 fragment TSR6-G2F-EGF1–2 (mouse) (UniProt D3YXG0)
[3] = molecular target: mouse HMCN1 fragment G2F-EGF1–2 (mouse) (UniProt D3YXG0)
[4] = molecular target: mouse HMCN1 fragment G2F-EGF1–3 (mouse) (UniProt D3YXG0)
[5] = molecular target: mouse HMCN1 fragment G2F-EGF1–4 (mouse) (UniProt D3YXG0)
[6] = molecular target: mouse HMCN1 fragment G2F (mouse) (UniProt D3YXG0)
[7] = molecular target: mouse HMCN1 fragment G2F-EGF1–5 (Strep-tagged) (mouse, UniProt D3YXG0 22-5634)
[8] = molecular target: laminin-511 (UniProt O15230 36-3695; P07942 22-1786; P11047 34-1609)
[9] = molecular target: laminin-γ1 short arm (mouse) (UniProt P02468)
[10] = molecular target: mouse HMCN1 fragment EGF1–5 (mouse) (UniProt D3YXG0)

Chain of laminin-γ1 short arm (mouse) (P02468 34-1607): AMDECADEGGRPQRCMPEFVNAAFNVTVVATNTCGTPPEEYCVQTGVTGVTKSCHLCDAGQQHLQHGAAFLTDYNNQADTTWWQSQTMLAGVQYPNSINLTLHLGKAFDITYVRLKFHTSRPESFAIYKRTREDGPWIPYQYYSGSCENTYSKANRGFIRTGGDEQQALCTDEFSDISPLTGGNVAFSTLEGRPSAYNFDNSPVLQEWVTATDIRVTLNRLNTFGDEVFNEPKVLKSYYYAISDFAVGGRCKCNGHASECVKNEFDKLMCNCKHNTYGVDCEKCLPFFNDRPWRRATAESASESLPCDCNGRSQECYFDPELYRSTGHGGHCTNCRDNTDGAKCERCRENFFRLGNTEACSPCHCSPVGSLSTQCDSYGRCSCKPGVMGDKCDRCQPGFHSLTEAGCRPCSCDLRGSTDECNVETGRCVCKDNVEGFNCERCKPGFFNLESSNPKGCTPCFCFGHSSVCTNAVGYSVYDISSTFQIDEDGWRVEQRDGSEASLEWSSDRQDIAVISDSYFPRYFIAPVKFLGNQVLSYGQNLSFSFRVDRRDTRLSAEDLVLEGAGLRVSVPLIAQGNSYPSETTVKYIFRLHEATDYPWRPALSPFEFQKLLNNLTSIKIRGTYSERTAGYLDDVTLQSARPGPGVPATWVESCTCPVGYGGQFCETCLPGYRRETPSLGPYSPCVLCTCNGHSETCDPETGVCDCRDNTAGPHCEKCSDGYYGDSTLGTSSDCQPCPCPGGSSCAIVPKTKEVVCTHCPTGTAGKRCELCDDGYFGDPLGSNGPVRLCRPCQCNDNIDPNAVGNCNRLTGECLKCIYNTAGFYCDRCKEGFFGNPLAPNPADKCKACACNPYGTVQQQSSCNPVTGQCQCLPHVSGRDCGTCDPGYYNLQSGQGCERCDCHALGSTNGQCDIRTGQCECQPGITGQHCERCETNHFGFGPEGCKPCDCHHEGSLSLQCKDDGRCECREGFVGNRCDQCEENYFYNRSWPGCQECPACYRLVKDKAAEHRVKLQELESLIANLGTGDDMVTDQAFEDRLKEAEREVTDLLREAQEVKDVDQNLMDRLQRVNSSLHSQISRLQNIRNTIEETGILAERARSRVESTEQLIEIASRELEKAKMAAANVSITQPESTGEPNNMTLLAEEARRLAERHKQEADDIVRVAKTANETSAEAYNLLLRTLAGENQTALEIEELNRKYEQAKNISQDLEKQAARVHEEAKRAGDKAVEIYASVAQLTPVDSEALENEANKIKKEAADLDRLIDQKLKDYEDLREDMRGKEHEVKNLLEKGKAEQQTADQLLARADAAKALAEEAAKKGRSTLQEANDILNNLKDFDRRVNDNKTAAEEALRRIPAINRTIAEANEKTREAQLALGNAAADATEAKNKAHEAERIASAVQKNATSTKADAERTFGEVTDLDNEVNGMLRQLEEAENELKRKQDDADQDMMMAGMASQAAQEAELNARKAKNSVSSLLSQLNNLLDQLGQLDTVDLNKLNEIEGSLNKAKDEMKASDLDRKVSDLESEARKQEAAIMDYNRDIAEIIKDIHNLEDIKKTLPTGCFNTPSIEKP

Kd [1]: 0.585 µM
Molecule: mouse NID1 TY-G3 (TG3) domain (from UniProt P10493 29-1245) (domain or fragment)

Kd [2]: 0.176 µM | Kd [1]: 0.03 µM | Kd [3]: 0.185 µM | Kd [4]: 0.17 µM | Kd [5]: 0.18 µM | Kd [6]: > 3 µM
Molecule: mouse NID2 TY-G3 (TG3) domain, Strep-tagged (from UniProt O88322 31-1403) (domain or fragment)

Kd [7]: 0.17 µM
B1: hybrid fragment: two TY domains of NID2 with the G3 domain of NID1 (N2T-N1G3) (domain or fragment)
chain: LKPCEYQQRYAQTQHAYPGSRIHIPQCDDQGNFVPLQCHGSTGFCWCVDRNGHEVPGTQTPPGSTPPHCGPPPEPTQRPRTVCERWRESLLEHYGGTPRDDQYVPQCDDLGHFIPLQCHGKSDFCWCVDKDGRELQGTRSQPGTRPACLSTVAPPIHQGPVVPTAVIPLPPGTHLLFAQTGKIERLPLERNTMKKTEAKAFLHIPAKVIIGLAFDCVDKVVYWTDISEPSIGRASLHGGEPTTIIRQDLGSPEGIALDHLGRTIFWTDSQLDRIEVAKMDGTQRRVLFDTGLVNPRGIVTDPVRGNLYWTDWNRDNPKIETSHMDGTNRRILAQDNLGLPNGLTFDAFSSQLCWVDAGTHRAECLNPAQPGRRKVLEGLQYPFAVTSYGKNLYYTDWKTNSVIAMDLAISKEMDTFHPHKQTRLYGITIALSQCPQGHNYCSVNNGGCTHLCLPTPGSRTCRCPDNTLGVDCIERK

Kd [1]: 0.56 µM | Kd [8]: 0.0024 µM | koff [8]: 0.0021 s⁻¹
B2: mouse nidogen-1 (NID1), full-length (natural protein, UniProt P10493 29-1245, looked up)
chain: LNRQELFPFGPGQGDLELEAGDDVVSPSLELIGELSFYDRTDITSVYVTTNGIIAMSEPPATEYHPGTFPPSFGSVAPFLADLDTTDGLGNVYYREDLSPFIIQMAAEYVQRGFPEVSFQPTSVVVVTWESVAPYGGPSSSPAEEGKRNTFQAVLASSNSSSYAIFLYPEDGLQFFTTFSKKDESQVPAVVGFSKGLVGFLWKSNGAYNIFANDRESIENLAKSSNAGHQGVWVFEIGSPATAKGVVSADVNLDLDDDGADYEDEDYDLVTSHLGLEDVATPSPSHSPRRGYPDPHNVPRILSPGYEATERPRGVPTERTRSFQLPAERFPQHHPQVIDVDEVEETGVVFSYNTGSQQTCANNRHQCSVHAECRDYATGFCCRCVANYTGNGRQCVAEGSPQRVNGKVKGRIFVGSSQVPVVFENTDLHSYVVMNHGRSYTAISTIPETVGYSLLPLAPIGGIIGWMFAVEQDGFKNGFSITGGEFTRQAEVTFLGHPGKLVLKQQFSGIDEHGHLTISTELEGRVPQIPYGASVHIEPYTELYHYSSSVITSSSTREYTVMEPDQDGAAPSHTHIYQWRQTITFQECAHDDARPALPSTQQLSVDSVFVLYNKEERILRYALSNSIGPVRDGSPDALQNPCYIGTHGCDSNAACRPGPGTQFTCECSIGFRGDGQTCYDIDECSEQPSRCGNHAVCNNLPGTFRCECVEGYHFSDRGTCVAAEDQRPINYCETGLHNCDIPQRAQCIYMGGSSYTCSCLPGFSGDGRACRDVDECQHSRCHPDAFCYNTPGSFTCQCKPGYQGDGFRCMPGEVSKTRCQLEREHILGAAGGADAQRPTLQGMFVPQCDEYGHYVPTQCHHSTGYCWCVDRDGRELEGSRTPPGMRPPCLSTVAPPIHQGPVVPTAVIPLPPGTHLLFAQTGKIERLPLERNTMKKTEAKAFLHIPAKVIIGLAFDCVDKVVYWTDISEPSIGRASLHGGEPTTIIRQDLGSPEGIALDHLGRTIFWTDSQLDRIEVAKMDGTQRRVLFDTGLVNPRGIVTDPVRGNLYWTDWNRDNPKIETSHMDGTNRRILAQDNLGLPNGLTFDAFSSQLCWVDAGTHRAECLNPAQPGRRKVLEGLQYPFAVTSYGKNLYYTDWKTNSVIAMDLAISKEMDTFHPHKQTRLYGITIALSQCPQGHNYCSVNNGGCTHLCLPTPGSRTCRCPDNTLGVDCIERK

Kd [7]: 0.11 µM
B3: hybrid fragment: single TY domain of NID1 with the G3 domain of Nid2 (N1T-N2G3) (domain or fragment)
chain: KTRCQLEREHILGAAGGADAQRPTLQGMFVPQCDEYGHYVPTQCHHSTGYCWCVDRDGRELEGSRTPPGMRPPCIPTVAPPVVRPTPRPDVTPPSVGTFLLYAQGQQIGHLPLNGSRLQKDAARTLLSLHGSIVVGIDYDCRERMVYWTDVAGRTISRASLEAGAEPETIITSGLISPEGLAIDHFRRTMYWTDSGLDKIERAELDGSERKVLFHTDLVNPRAITVDPIRGNLYWTDWNREAPKIETSSLDGENRRILINKDIGLPNGLTFDPFSKLLCWADAGTKKLECTLPDGTGRRVIQNHLNYPFSIVSYADHFYHTDWRRDGVISVNKDSGQFTDEFLPEQRSHLYGITAVYPYCPTGRK

Kd [9]: 0.006 µM | koff [9]: 0.00073 s⁻¹ | kon [9]: 120000 M⁻¹ s⁻¹ | Kd [2]: 0.16 µM | Kd [1]: 0.02 µM | koff [1]: 0.00837 s⁻¹ | Kd [3]: 0.2 µM | Kd [4]: 0.21 µM | Kd [10]: 0.5 µM | Kd [5]: 0.193 µM | Kd [6]: > 3 µM | Kd [8]: 0.005 µM | koff [8]: 0.00081 s⁻¹
B4: mouse nidogen-2 (NID2), full-length, Strep-tagged (natural protein, UniProt O88322 31-1403, looked up)
chain: LRPDELFPYGESWGDQLLPEGDDESSAAVKLAIPLRFYDAQFSSLYVGTNGIISTQDFPRETQYVDDDFPTDFPAIAPFLADIDTSHSRGRILYREDTSGAVLSLAARYVRTGFPLSGSSFTPTHAFLATWEHVGAYEEVSRGAAPSGELNTFQAVLASDESDTYALFLYPANGLQFFGTRPKESYNVQLQLPARVGFCRGEADDLKREALYFSLTNTEQSVKNLYQLSNLGIPGVWAFHIGSRFALDNVRPATVGGDPSTARSSALEHPFSHAAALESYTEDSFHYYDENEEDVEYPPVEPGEAPEGHSRIDVSFNSKADPGLVDVGTSSPGSDRASPWPYPAPGNWPSYRETESASLDPQTKQGRPVGEGEVLDFRDPAELLDQMGTRAPAPPEADAALLTPVNEDLGGRNTQSYPEAGPVPSEPDVPVPPLEGEVLPHYPESGHVPPLRGGKYVIGLEDHVGSNDQVFTYNGANLETCEHSHGRCSQHAFCTDYTTGFCCHCQSRFYGNGKHCLPEGAPHRVNGKVSGRLRVGHIPVHFTDVDLHAYIVGNDGRAYTAISHVPQPAAQALLPVLPIGGLFGWLFALEKPGSENGFSLTGATFVHDVEVTFHPGEERVRITQTAEGLDPENYLSIKTNIEGQVPFIPANFTAHITPYKEFYHYRDSVVTSSSSRSFSLTSGSINQTWSYHIDQNITYQACRHAPRHLAIPATQQLTVDRAFALYSEDEGVLRFAVTNQIGPVEVDSAPVGVNPCYDGSHTCDTTARCHPGTGVDYTCECTPGFQGDGRSCVDVNECATGFHRCGPNSVCVNLVGSYRCECRSGYEFADDQHTCILIAPPPNPCLDGSHTCAPEGQARCIHHGGSSFSCACLPGFIGTGHQCSDVDECAENRCHEAAICYNTPGSFSCRCQPGYRGDGFHCTSDTVPEDSISGLKPCEYQQRYAQTQHAYPGSRIHIPQCDDQGNFVPLQCHGSTGFCWCVDRNGHEVPGTQTPPGSTPPHCGPPPEPTQRPRTVCERWRESLLEHYGGTPRDDQYVPQCDDLGHFIPLQCHGKSDFCWCVDKDGRELQGTRSQPGTRPACIPTVAPPVVRPTPRPDVTPPSVGTFLLYAQGQQIGHLPLNGSRLQKDAARTLLSLHGSIVVGIDYDCRERMVYWTDVAGRTISRASLEAGAEPETIITSGLISPEGLAIDHFRRTMYWTDSGLDKIERAELDGSERKVLFHTDLVNPRAITVDPIRGNLYWTDWNREAPKIETSSLDGENRRILINKDIGLPNGLTFDPFSKLLCWADAGTKKLECTLPDGTGRRVIQNHLNYPFSIVSYADHFYHTDWRRDGVISVNKDSGQFTDEFLPEQRSHLYGITAVYPYCPTGRK
